Values quoted from earlier work in PMC7076691.

Molecular target: Bfd (Pseudomonas aeruginosa) (UniProt Q9HY80)
Chain of UniProt Q9HY80 (Q9HY80 whole entry): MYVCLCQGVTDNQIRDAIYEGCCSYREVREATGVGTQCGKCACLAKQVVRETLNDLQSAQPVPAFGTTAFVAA

Question: With BfrB (from UniProt Q9HY79) as the substance, how does the Kd read?
Answer: 3000 nM
